From patent publication US20180155406A1 (Sanofi, published 2018)
Numbered stars: 1 amine (or outer) side, 2 acyl side, 3 side chain; on linkers, the order of the positions; unused ones are H or OH. Square brackets hold non-standard residues; d marks the D form. Side chains are listed from the residue outwards. Ends that are not written are not given here. * marks the point of attachment. γGlu = O=C(O)[C@H](CCC(=O)[*:2])N[*:1]; Palmitoyl = CCCCCCCCCCCCCCCC(=O)*; Aib = CC(C)(N)C(=O)O

Legend:
Assay in all cases: cell-based or functional assay
human GLP-1 receptor = human GLP-1 receptor (human, UniProt P43220 24-463)
human glucagon receptor = human glucagon receptor (human, UniProt P47871 26-477)
human GIP receptor = biological target: T1, human GIP receptor (human, UniProt P48546 22-466)
T1 sequence (looked up): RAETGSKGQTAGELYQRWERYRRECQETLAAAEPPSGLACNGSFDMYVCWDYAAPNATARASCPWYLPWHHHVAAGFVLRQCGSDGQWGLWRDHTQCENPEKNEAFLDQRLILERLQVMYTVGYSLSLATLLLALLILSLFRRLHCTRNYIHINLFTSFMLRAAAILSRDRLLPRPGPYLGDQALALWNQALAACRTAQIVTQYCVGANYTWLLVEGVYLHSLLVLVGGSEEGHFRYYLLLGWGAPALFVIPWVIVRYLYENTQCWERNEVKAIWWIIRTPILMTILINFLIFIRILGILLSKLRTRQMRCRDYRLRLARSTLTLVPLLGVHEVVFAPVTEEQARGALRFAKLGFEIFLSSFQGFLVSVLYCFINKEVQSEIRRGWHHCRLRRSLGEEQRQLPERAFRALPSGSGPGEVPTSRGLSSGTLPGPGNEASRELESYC

human glucagon receptor, sequence (P47871 26-477): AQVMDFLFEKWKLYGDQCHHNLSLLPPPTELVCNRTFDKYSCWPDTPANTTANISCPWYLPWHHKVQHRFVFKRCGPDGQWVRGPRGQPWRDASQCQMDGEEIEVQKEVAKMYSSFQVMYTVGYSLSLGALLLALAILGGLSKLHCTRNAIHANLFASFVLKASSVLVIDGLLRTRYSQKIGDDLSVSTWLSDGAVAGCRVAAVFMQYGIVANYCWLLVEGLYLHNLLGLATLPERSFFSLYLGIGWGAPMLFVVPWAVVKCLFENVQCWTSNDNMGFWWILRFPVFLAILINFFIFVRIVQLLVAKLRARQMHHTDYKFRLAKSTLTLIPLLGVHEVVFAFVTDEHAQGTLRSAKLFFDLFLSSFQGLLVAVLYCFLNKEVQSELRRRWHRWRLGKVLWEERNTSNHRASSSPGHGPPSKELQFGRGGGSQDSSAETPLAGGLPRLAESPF

B1: SEQ ID NO: 13 (peptide)
peptide: H[Aib]HGTFTSDLSKLK([γGlu-γGlu-Palmitoyl])EEQRQ[Aib]EFIEWLKA[dA]GHPS[Aib]KPPPK-NH2
modifications: N-terminus assumed
SMILES: CCCCCCCCCCCCCCCC(=O)N[C@@H](CCC(=O)N[C@@H](CCC(=O)NCCCC[C@H](NC(=O)[C@H](CC(C)C)NC(=O)[C@H](CCCCN)NC(=O)[C@H](CO)NC(=O)[C@H](CC(C)C)NC(=O)[C@H](CC(=O)O)NC(=O)[C@H](CO)NC(=O)[C@@H](NC(=O)[C@H](Cc1ccccc1)NC(=O)[C@@H](NC(=O)CNC(=O)[C@H](Cc1c[nH]cn1)NC(=O)C(C)(C)NC(=O)[C@@H](N)Cc1c[nH]cn1)[C@@H](C)O)[C@@H](C)O)C(=O)N[C@@H](CCC(=O)O)C(=O)N[C@@H](CCC(=O)O)C(=O)N[C@@H](CCC(N)=O)C(=O)N[C@@H](CCCNC(=N)N)C(=O)N[C@@H](CCC(N)=O)C(=O)NC(C)(C)C(=O)N[C@@H](CCC(=O)O)C(=O)N[C@@H](Cc1ccccc1)C(=O)N[C@H](C(=O)N[C@@H](CCC(=O)O)C(=O)N[C@@H](Cc1c[nH]c2ccccc12)C(=O)N[C@@H](CC(C)C)C(=O)N[C@@H](CCCCN)C(=O)N[C@@H](C)C(=O)N[C@H](C)C(=O)NCC(=O)N[C@@H](Cc1c[nH]cn1)C(=O)N1CCC[C@H]1C(=O)N[C@@H](CO)C(=O)NC(C)(C)C(=O)N[C@@H](CCCCN)C(=O)N1CCC[C@H]1C(=O)N1CCC[C@H]1C(=O)N1CCC[C@H]1C(=O)N[C@@H](CCCCN)C(N)=O)[C@@H](C)CC)C(=O)O)C(=O)O
EC50 hGLP-1R (cAMP formation) (human GLP-1 receptor): 2.8 pM
EC50 hGlucagon R (cAMP formation) (human glucagon receptor): 2.1 pM
EC50 hGIP R (cAMP formation) (human GIP receptor): 2.7 pM

B2: SEQ ID NO: 10 (peptide)
peptide: H[Aib]HGTFTSDLSKLK([γGlu-γGlu-Palmitoyl])EEQRQ[Aib]EFIEWLKAGGPPS[Aib]KPPPK-NH2
modifications: N-terminus assumed
SMILES: CCCCCCCCCCCCCCCC(=O)N[C@@H](CCC(=O)N[C@@H](CCC(=O)NCCCC[C@H](NC(=O)[C@H](CC(C)C)NC(=O)[C@H](CCCCN)NC(=O)[C@H](CO)NC(=O)[C@H](CC(C)C)NC(=O)[C@H](CC(=O)O)NC(=O)[C@H](CO)NC(=O)[C@@H](NC(=O)[C@H](Cc1ccccc1)NC(=O)[C@@H](NC(=O)CNC(=O)[C@H](Cc1c[nH]cn1)NC(=O)C(C)(C)NC(=O)[C@@H](N)Cc1c[nH]cn1)[C@@H](C)O)[C@@H](C)O)C(=O)N[C@@H](CCC(=O)O)C(=O)N[C@@H](CCC(=O)O)C(=O)N[C@@H](CCC(N)=O)C(=O)N[C@@H](CCCNC(=N)N)C(=O)N[C@@H](CCC(N)=O)C(=O)NC(C)(C)C(=O)N[C@@H](CCC(=O)O)C(=O)N[C@@H](Cc1ccccc1)C(=O)N[C@H](C(=O)N[C@@H](CCC(=O)O)C(=O)N[C@@H](Cc1c[nH]c2ccccc12)C(=O)N[C@@H](CC(C)C)C(=O)N[C@@H](CCCCN)C(=O)N[C@@H](C)C(=O)NCC(=O)NCC(=O)N1CCC[C@H]1C(=O)N1CCC[C@H]1C(=O)N[C@@H](CO)C(=O)NC(C)(C)C(=O)N[C@@H](CCCCN)C(=O)N1CCC[C@H]1C(=O)N1CCC[C@H]1C(=O)N1CCC[C@H]1C(=O)N[C@@H](CCCCN)C(N)=O)[C@@H](C)CC)C(=O)O)C(=O)O
EC50 hGLP-1R (cAMP formation) (human GLP-1 receptor): 2.3 pM
EC50 hGlucagon R (cAMP formation) (human glucagon receptor): 1.6 pM
EC50 hGIP R (cAMP formation) (human GIP receptor): 1.1 pM

B3: SEQ ID NO: 7 (peptide)
peptide: H[Aib]HGTFTSDLSKLK([γGlu-γGlu-Palmitoyl])EEQRQKEFIEWLKA[dA]GHPS[Aib]KPPPK-NH2
modifications: N-terminus assumed
SMILES: CCCCCCCCCCCCCCCC(=O)N[C@@H](CCC(=O)N[C@@H](CCC(=O)NCCCC[C@H](NC(=O)[C@H](CC(C)C)NC(=O)[C@H](CCCCN)NC(=O)[C@H](CO)NC(=O)[C@H](CC(C)C)NC(=O)[C@H](CC(=O)O)NC(=O)[C@H](CO)NC(=O)[C@@H](NC(=O)[C@H](Cc1ccccc1)NC(=O)[C@@H](NC(=O)CNC(=O)[C@H](Cc1c[nH]cn1)NC(=O)C(C)(C)NC(=O)[C@@H](N)Cc1c[nH]cn1)[C@@H](C)O)[C@@H](C)O)C(=O)N[C@@H](CCC(=O)O)C(=O)N[C@@H](CCC(=O)O)C(=O)N[C@@H](CCC(N)=O)C(=O)N[C@@H](CCCNC(=N)N)C(=O)N[C@@H](CCC(N)=O)C(=O)N[C@@H](CCCCN)C(=O)N[C@@H](CCC(=O)O)C(=O)N[C@@H](Cc1ccccc1)C(=O)N[C@H](C(=O)N[C@@H](CCC(=O)O)C(=O)N[C@@H](Cc1c[nH]c2ccccc12)C(=O)N[C@@H](CC(C)C)C(=O)N[C@@H](CCCCN)C(=O)N[C@@H](C)C(=O)N[C@H](C)C(=O)NCC(=O)N[C@@H](Cc1c[nH]cn1)C(=O)N1CCC[C@H]1C(=O)N[C@@H](CO)C(=O)NC(C)(C)C(=O)N[C@@H](CCCCN)C(=O)N1CCC[C@H]1C(=O)N1CCC[C@H]1C(=O)N1CCC[C@H]1C(=O)N[C@@H](CCCCN)C(N)=O)[C@@H](C)CC)C(=O)O)C(=O)O
EC50 hGLP-1R (cAMP formation) (human GLP-1 receptor): 1.7 pM
EC50 hGlucagon R (cAMP formation) (human glucagon receptor): 3.2 pM
EC50 hGIP R (cAMP formation) (human GIP receptor): 2.6 pM

H[Aib]HGTFTSDLSKLK([γGlu-γGlu-Palmitoyl])EEQRQKEFIEWLKAGGPPS[Aib]KPPPK-NH2 [SEQ ID NO: 8]
EC50 hGLP-1R (cAMP formation) (human GLP-1 receptor): 1.3 pM
EC50 hGlucagon R (cAMP formation) (human glucagon receptor): 2 pM
EC50 hGIP R (cAMP formation) (human GIP receptor): 1.6 pM

H[Aib]HGTFTSDLSKLK([γGlu-γGlu-Palmitoyl])EEQRQ[Aib]EFIEWLKAGGHPS[Aib]KPPPK-NH2 [SEQ ID NO: 12]
EC50 hGLP-1R (cAMP formation) (human GLP-1 receptor): 1.8 pM
EC50 hGlucagon R (cAMP formation) (human glucagon receptor): 2 pM
EC50 hGIP R (cAMP formation) (human GIP receptor): 1.9 pM

B4: SEQ ID NO: 11 (peptide)
peptide: H[Aib]HGTFTSDLSKLK([γGlu-γGlu-Palmitoyl])EEQRQ[Aib]EFIEWLKA[dA]GPPS[Aib]KPPPK-NH2
modifications: N-terminus assumed
SMILES: CCCCCCCCCCCCCCCC(=O)N[C@@H](CCC(=O)N[C@@H](CCC(=O)NCCCC[C@H](NC(=O)[C@H](CC(C)C)NC(=O)[C@H](CCCCN)NC(=O)[C@H](CO)NC(=O)[C@H](CC(C)C)NC(=O)[C@H](CC(=O)O)NC(=O)[C@H](CO)NC(=O)[C@@H](NC(=O)[C@H](Cc1ccccc1)NC(=O)[C@@H](NC(=O)CNC(=O)[C@H](Cc1c[nH]cn1)NC(=O)C(C)(C)NC(=O)[C@@H](N)Cc1c[nH]cn1)[C@@H](C)O)[C@@H](C)O)C(=O)N[C@@H](CCC(=O)O)C(=O)N[C@@H](CCC(=O)O)C(=O)N[C@@H](CCC(N)=O)C(=O)N[C@@H](CCCNC(=N)N)C(=O)N[C@@H](CCC(N)=O)C(=O)NC(C)(C)C(=O)N[C@@H](CCC(=O)O)C(=O)N[C@@H](Cc1ccccc1)C(=O)N[C@H](C(=O)N[C@@H](CCC(=O)O)C(=O)N[C@@H](Cc1c[nH]c2ccccc12)C(=O)N[C@@H](CC(C)C)C(=O)N[C@@H](CCCCN)C(=O)N[C@@H](C)C(=O)N[C@H](C)C(=O)NCC(=O)N1CCC[C@H]1C(=O)N1CCC[C@H]1C(=O)N[C@@H](CO)C(=O)NC(C)(C)C(=O)N[C@@H](CCCCN)C(=O)N1CCC[C@H]1C(=O)N1CCC[C@H]1C(=O)N1CCC[C@H]1C(=O)N[C@@H](CCCCN)C(N)=O)[C@@H](C)CC)C(=O)O)C(=O)O
EC50 hGLP-1R (cAMP formation) (human GLP-1 receptor): 2.9 pM
EC50 hGlucagon R (cAMP formation) (human glucagon receptor): 2.1 pM
EC50 hGIP R (cAMP formation) (human GIP receptor): 1.5 pM

B5: SEQ ID NO: 9 (peptide)
peptide: H[Aib]HGTFTSDLSKLK([γGlu-γGlu-Palmitoyl])EEQRQKEFIEWLKA[dA]GPPS[Aib]KPPPK-NH2
modifications: N-terminus assumed
SMILES: CCCCCCCCCCCCCCCC(=O)N[C@@H](CCC(=O)N[C@@H](CCC(=O)NCCCC[C@H](NC(=O)[C@H](CC(C)C)NC(=O)[C@H](CCCCN)NC(=O)[C@H](CO)NC(=O)[C@H](CC(C)C)NC(=O)[C@H](CC(=O)O)NC(=O)[C@H](CO)NC(=O)[C@@H](NC(=O)[C@H](Cc1ccccc1)NC(=O)[C@@H](NC(=O)CNC(=O)[C@H](Cc1c[nH]cn1)NC(=O)C(C)(C)NC(=O)[C@@H](N)Cc1c[nH]cn1)[C@@H](C)O)[C@@H](C)O)C(=O)N[C@@H](CCC(=O)O)C(=O)N[C@@H](CCC(=O)O)C(=O)N[C@@H](CCC(N)=O)C(=O)N[C@@H](CCCNC(=N)N)C(=O)N[C@@H](CCC(N)=O)C(=O)N[C@@H](CCCCN)C(=O)N[C@@H](CCC(=O)O)C(=O)N[C@@H](Cc1ccccc1)C(=O)N[C@H](C(=O)N[C@@H](CCC(=O)O)C(=O)N[C@@H](Cc1c[nH]c2ccccc12)C(=O)N[C@@H](CC(C)C)C(=O)N[C@@H](CCCCN)C(=O)N[C@@H](C)C(=O)N[C@H](C)C(=O)NCC(=O)N1CCC[C@H]1C(=O)N1CCC[C@H]1C(=O)N[C@@H](CO)C(=O)NC(C)(C)C(=O)N[C@@H](CCCCN)C(=O)N1CCC[C@H]1C(=O)N1CCC[C@H]1C(=O)N1CCC[C@H]1C(=O)N[C@@H](CCCCN)C(N)=O)[C@@H](C)CC)C(=O)O)C(=O)O
EC50 hGLP-1R (cAMP formation) (human GLP-1 receptor): 1.6 pM
EC50 hGlucagon R (cAMP formation) (human glucagon receptor): 2.9 pM
EC50 hGIP R (cAMP formation) (human GIP receptor): 2.6 pM
